Test: yeast display, Sf9 membrane polyspecificity reagent, FACS + sequencing; frameworks hold sequencing errors
Procedure, shortened: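 Galactose induction of a Saccharomyces cerevisiae BJ5465 synthetic nanobody display library ran 36–48 hours. The cells were then stained for 1 hour at 4 °C with 10% biotinylated, detergent-solubilized Sf9 membrane reagent, pulled down on streptavidin microbeads and FACS-sorted into low and high (top ~1%) gates on expression and reagent-binding fluorescence. Labels for polyreactivity follow the gate of origin.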

Row | Sequence | polyreactivity (PSR sort gate)
1 | QVQLVESGGGLVQAGGSLRLSCAASGSIFNRYAMGWYRPAPGKEREFVARISKRGGGTYYADSVKGRFTISRDNAKNTVYLQMNSLKPEDTAVYYCAARAYDHTGHVGFDYWGQGTQVTVSS | high polyreactivity
2 | QVQLVESGGGLVQAGGSLRLSCAASGSIFNRYTMGWYRQAPGKERELVAAISKRGGSTYYADSVKGRFTISRDNAKNTVYLQMNSLKPEDSAVYYCAAAAYHSGNGGGYWGQGTQVSVSS | high polyreactivity
3 | QVQLVESGGGLVQAGGSLRLSCAASGSIFNSNGMGWYRPAPGKERELVAAITGGGSTNYADSVKGRFTISRDNAKNTVYLQMNSLKPEDTAVYYCAARPLRTDWAYYYWGQGTQVTVSS | low polyreactivity
4 | QVQLVESGGGLVQAGGSLRLSCAASGSIFNSYAMGWYRQAPGKERELVAAIRWSGGRTYYADSVKGRFTISRDNAKNTVYLQMNSLKPEDTAVYYCNVVSPGRVNYWGQGTQVTVSS | high polyreactivity
5 | QVQLVESGGGLVQAGGSLRLSCAASGSIFNSYAMGWYRQAPGKERELVAAISRSGGRTYYADSVKGRFTISRDNAKNTVYLQMNSLKPEDTAVYYCAADAGSYLSYKAWARKMYYLGQGTQVTVSS | high polyreactivity
6 | QVQLVESGGGLVQAGGSLRLSCAASGSIFNVYAMGWYRQAPGKERELVAAISSSGARTYYADSVKGRFTISRDNAKNTVYLQMNSLKPEDTAVYYCAARSILIRSGGGYPSVWRNYWGQGTQVTVSS | high polyreactivity
7 | QVQLVESGGGLVQAGGSLRLSCAASGSIFNVYVMGWYRQAPGKERELVAAITWSGGTTYYADSVKGRFTISRDNAKNTVYLQMNSLKPEDTAVYYCAAEVWYFYDGYDYWGQGTQVTVSS | high polyreactivity
8 | QVQLVESGGGLVQAGGSLRLSCAASGSIFNWYAMGWYRQAPGNERELVADISWSDGDTYYADSVKGRFSISRDNAKNTDYLQMNSLKPEDTAVYYSAAASNLYYPYYVLGDPYDYWGQGTQVTVSS | low polyreactivity
9 | QVQLVESGGGLVQAGGSLRLSCAASGSIFNYNAMGWYRQAPGKERELVATINKRAGRTYYADSVKGRFTISRDNAKNTVYLQMNSLKPEDTAVYYCAALHSGRVQNFDYWGQGTQVTVSS | high polyreactivity
10 | QVQLVESGGGLVQAGGSLRLSCAASGSIFNYNMGLYRQAPGKERELVAAVSTNYADSVKGRFTISRDNAKNTVYLQMNSLKPEDYAVYYCGVTPEKSGDEYDNWGQGTQVTVSS | low polyreactivity
11 | QVQLVESGGGLVQAGGSLRLSCAASGSIFNYYAMGWYRQAPGKEREFVAAISWRGGSTYYADSVKGRFTISRDNAKNTVYLQMNRLKPEDTAVYYCNARVYGVYRRRVNYWGQGTQVTVSS | high polyreactivity
12 | QVQLVESGGGLVQAGGSLRLSCAASGSIFNYYAMGWYRQAPGKERELVAGITTSGGSTYYADSVKGRFTISRDNAKNTVYLQMISLKPEDTAVYYCAAYDYISSTYFLDDYWGQGTQVSVSS | low polyreactivity
13 | QVQLVESGGGLVQAGGSLRLSCAASGSIFPDYAMGWYRQAPGKERELVAAITWRDDSTYYADSVKGRFTISRDNAKNTVYLQMNSLKPEDTAVYYCNASALDPLYAKDDYWGQGTQVTVSS | low polyreactivity
14 | QVQLVESGGGLVQAGGSLRLSCAASGSIFPENAMGWYRQAPGKERELVAAINRGGSTYYADSVKGRFTISRDNAKNTVYLQMNSLKPVDTAVYYCAAEYSGWGYIFNYWGQGTQVTVSS | low polyreactivity
15 | QVQLVESGGGLVQAGGSLRLSCAASGSIFPGNAMRWYRQAPGKERELVATITWSGGSTYYADSVKGRFTISRDNAKNTVYLQINSLKPEDTAVYYCNADSNWYYQWNYYGLYDYWGQGTQVTVSS | low polyreactivity
16 | QVQLVESGGGLVQAGGSLRLSCAASGSIFPGYAMGWYRQAPGKERELDATITWSGGSTYYADSVKGRFTISRDTAKNTVYLQMNSLKPEDTAVYYCNADSNWYYQWNYYGLYDYWGQGTQVTVSS | low polyreactivity
17 | QVQLVESGGGLVQAGGSLRLSCAASGSIFPGYAMGWYRQAPGKERELVAGITWSDARTYYADSVKGRFTISRDNAKNTVYLQMNCLKPEDTAVYYCAADYYYYELDYWGKGTQVTVSS | low polyreactivity
18 | QVQLVESGGGLVQAGGSLRLSCAASGSIFPGYAMGWYRQAPGKERELVATITYSDGSTYYADSVKGRFTISRDNAKNTVSLQMNSLKPEDTAVYYCNAASRGAGTSIWSWYDHWGQGTQVTVSS | low polyreactivity
19 | QVQLVESGGGLVQAGGSLRLSCAASGSIFPGYTMGWYRQAPGKERELVAAITSSGGSTYYADSVKGRFTISRDNAKNTVYLQMNSLKPEDTAVYYCAADTTNYFDPFDYWGQGTQVTVSS | low polyreactivity
20 | QVQLVESGGGLVQAGGSLRLSCAASGSIFPHNTMGWYRQAPGKERELVAAITRDGTSTYYADSVKGRFTISRDNAKNTVYLQMNSLKPEDTAVYYCAARRARSFYVTYYGVGFNYWGQGTQVTVSS | low polyreactivity
21 | QVQLVESGGGLVQAGGSLRLSCAASGSIFPHYAMGWYRQAHGKERELVAAMSYSGGRTYYADSVKGRFTISRDNAKNTVYLQMNSLKPEDTAVYYCAKPERVLYHGDYWGQGTQVTVSS | low polyreactivity
22 | QVQLVESGGGLVQAGGSLRLSCAASGSIFPHYAMGWYRQAPGKERELVAAISRGGSTNYADSVKGRFTISRDNAKNTVYLQMNSLKPEDTAVYYCAAQGNRYANDYWGQGTQVTVSS | high polyreactivity

Row | Sequence | polyreactivity (PSR sort gate)
23 | QVQLVESGGGLVQAGGSLRLSCAASGSIFPINAMGWYRQAPGKERELVAVITSGGGGTYYADSVKGRFTISRDNAKNTVYLQMNSLKPEDSAVYYCAKRLSRKWQKFGYWGQGSQVTVSS | low polyreactivity
24 | QVQLVESGGGLVQAGGSLRLSCAASGSIFPKYAMGWYRQAPGKERELVAAITSSGGRTYYADSVKGRFSISRDNAKNTVYLQMNSLKPEDTAVYYCAARYRREAAYGFDYWGQGTQVTVSS | high polyreactivity
25 | QVQLVESGGGLVQAGGSLRLSCAASGSIFPKYAMGWYRQAPGKERELVATISYRGGRTYYADSVKGRFTISRDNAKNTVYLQMNSLKPEDTAVYYCAGADYGSYPTYGYFEYYYWGQGTQVTVSS | low polyreactivity
26 | QVQLVESGGGLVQAGGSLRLSCAASGSIFPLSAMGWYRQAPGKERELVAAITWRGGSTYYADSVKGRFTISRDNAKNTVYLQMNSLKPEDTAVYYCNRDLVPRFDYWGQGTQVTVSS | low polyreactivity
27 | QVQLVESGGGLVQAGGSLRLSCAASGSIFPLYGMGWYRQAPGKERELVGAISIGGRTNYADSVKGRFTISRDNAKNTVYLQMNSLKPEDTAVYYCNAVSKFVYRNRILWYDYWGQGTQVTVSS | high polyreactivity
28 | QVQLVESGGGLVQAGGSLRLSCAASGSIFPPYAMGWYRQAPGKERELVAAIDWGGSSTYYADSVKGRFTISRDNAKNTVYLQMNSLKPEDTAVYYCAAEVVHGYYLYEYWGQGTQVTVSS | high polyreactivity
29 | QVQLVESGGGLVQAGGSLRLSCAASGSIFPRNAMGWYRQAPGKERELVARINSGGTTKYADSVKGRFTISRDNAKNTVYLQMNSLKPEDTAVYYCNADTYILDPLRKSYGYDYWGQGTQVTVSS | low polyreactivity
30 | QVQLVESGGGLVQAGGSLRLSCAASGSIFPRYAMGWYRQAPGKERELVAAITGSGSSTYYADSVKGRFTISRDNAKNTVYLQMNSLKPEDTAVYYCAARKARPPFPHPFDYYWGQGTQVTVSS | low polyreactivity
31 | QVQLVESGGGLVQAGGSLRLSCAASGSIFPSYGMGWYRQAPGKERELVARITSGGGTNYADSVKGRFTISRDNAKNTVYLQMNSLKPEDTAVYYFNKAFRGSQGHRGHYRYGYWGQGTQVTVSS | high polyreactivity
32 | QVQLVESGGGLVQAGGSLRLSCAASGSIFPTNAMGWYRQAPGKERELVAAISSRDGSTYYADSVKGRFTISRDNAKNTVYLQMNSLKPEDTAVYYCNTDHDPIYFYITRHDSWGQGTQVTVSS | low polyreactivity
33 | QVQLVESGGGLVQAGGSLRLSCAASGSIFPTYAMGWYRQAPGKEWELVAAIRGDGSTNYADSVKGRFTISRDNAKNTVYLQMNSLKPEDTAVSYCAAVSSEYVFRYGGYWGQGTQVTVSS | low polyreactivity
34 | QVQLVESGGGLVQAGGSLRLSCAASGSIFPVNAMGLYRQAPGKERELVAAINTSSGSTYYADSVKGRFTISRDNAKNTVYLQMNSLKPEDTAVYYCAAVYVASGYRYGYWGQGTQVTVSS | high polyreactivity
35 | QVQLVESGGGLVQAGGSLRLSCAASGSIFPVNVMGWYRQEPGKERELVARITSGGSTIYADSVKGRFTISRDNAKNTVYLQMNSLKPEDTAVYYCAARQYHWYLPSYWYRYDYWGQGTQVTVSS | high polyreactivity
36 | QVQLVESGGGLVQAGGSLRLSCAASGSIFPWNAMGWYRQAPGKERELVAAISFSSGGSTYYADSVKGRFTISRDNAKNTVYLQMNSLKPEDPAVYYCAARTKLWVLGNYYYWGQGTQVTVSS | high polyreactivity
37 | QVQLVESGGGLVQAGGSLRLSCAASGSIFPWYTMGWYRQAPGKEREFVAAISWSGGSTYYADSVKGRFTISRDNAKNTDYLQMNSLKPEETAVYYCAASRRPWYRAVTWNAGDYWGQGTQVTVSS | high polyreactivity
38 | QVQLVESGGGLVQAGGSLRLSCAASGSIFPYNAMGWYRQAPGKERELVAAITTSGTSTYYADSVKGRFTISRDNAKNTVYLQMNSLKPEDTAVYYCAATSRGAISKARFYYWGQGTQVTVSS | high polyreactivity
39 | QVQLVESGGGLVQAGGSLRLSCAASGSIFPYNAMGWYRQAPGKERELVATISSGGSTNYADSVKGRFTISRDNAKNTVYLHMNSLKPEDTAVYYCAADVIVFYYAPNYWGDIGYGYWGQGTQVTVSS | low polyreactivity
40 | QVQLVESGGGLVQAGGSLRLSCAASGSIFPYYAMGWYRPAPGTERELVAAISRGGGTTYYADSVKGRFTISRDNAKNTVYLQMNSLKPEDTAVYYCAARQWRISTPYDYWGQGTQVTVSS | high polyreactivity
41 | QVQLVESGGGLVQAGGSLRLSCAASGSIFPYYAMGWYRQAPGKERELVAAINWIGGSTYYADSVKGRFTISRDNAKNTVYLQMNSLKPEDTAVYYCAVDYYSYYYEYDYWGQGTQVTVSS | high polyreactivity
42 | QVQLVESGGGLVQAGGSLRLSCAASGSIFPYYAMGWYRQAPGKERELVAAITGAGSTNYADSVKGRFTISRDNAKNTVYLQMNSLKPEDTAVYYCAADFGSPDKWRDWYDYWGQGTQVTVSS | low polyreactivity
43 | QVQLVESGGGLVQAGGSLRLSCAASGSIFPYYAMGWYRQAPGKERELVAAITYIGGDTYYADSVKGRFTISRDNAKNTVYLQMNSLKPEDTAVYYCAAELSWRQYDYEYWGQGTQVTVSS | low polyreactivity
